The source of these data is US20220204621A1 (UCL BUSINESS, published 2022).

The target of test [1] is human Receptor Tyrosine Kinase Like Orphan Receptor 1 (ROR1), full length (human) (UniProt Q01973). The experiment in a line: cell-based or functional assay.
The target of test [2] is human ROR1 with the combination of Q(261)H and I(254)V (human, UniProt Q01973 30-937, limits assumed). The test is described as follows: antibody binding to mutated human ROR1 constructs.
Chain of human ROR1 with the combination of Q(261)H and I(254)V (Q01973 30-937 I254V/Q261H limits assumed): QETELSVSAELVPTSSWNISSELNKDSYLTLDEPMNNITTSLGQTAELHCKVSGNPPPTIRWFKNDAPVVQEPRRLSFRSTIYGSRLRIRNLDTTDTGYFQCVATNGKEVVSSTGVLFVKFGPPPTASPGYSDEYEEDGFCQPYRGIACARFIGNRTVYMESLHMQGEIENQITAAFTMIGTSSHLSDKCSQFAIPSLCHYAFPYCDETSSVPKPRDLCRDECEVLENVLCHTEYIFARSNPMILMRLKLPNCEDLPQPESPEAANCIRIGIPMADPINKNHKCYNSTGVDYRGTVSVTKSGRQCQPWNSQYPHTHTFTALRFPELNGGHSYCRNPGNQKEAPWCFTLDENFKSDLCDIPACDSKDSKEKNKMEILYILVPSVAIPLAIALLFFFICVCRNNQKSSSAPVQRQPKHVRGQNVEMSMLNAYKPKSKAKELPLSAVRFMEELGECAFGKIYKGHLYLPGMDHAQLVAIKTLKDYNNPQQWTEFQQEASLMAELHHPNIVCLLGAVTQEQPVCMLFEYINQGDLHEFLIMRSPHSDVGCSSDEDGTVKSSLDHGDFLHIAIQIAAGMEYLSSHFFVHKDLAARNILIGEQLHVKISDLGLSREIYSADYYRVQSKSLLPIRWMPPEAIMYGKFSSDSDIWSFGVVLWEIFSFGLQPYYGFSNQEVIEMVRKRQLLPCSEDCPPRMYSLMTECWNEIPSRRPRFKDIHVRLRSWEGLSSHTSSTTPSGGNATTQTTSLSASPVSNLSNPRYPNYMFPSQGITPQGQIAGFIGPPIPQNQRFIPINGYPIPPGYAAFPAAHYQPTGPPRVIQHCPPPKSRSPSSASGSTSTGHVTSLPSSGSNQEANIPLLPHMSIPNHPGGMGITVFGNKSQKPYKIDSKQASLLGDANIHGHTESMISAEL

Chain of human Receptor Tyrosine Kinase Like Orphan Receptor 1 (ROR1), full length (human) (Q01973 30-937): as the sequence (Q01973 30-937 I254V/Q261H limits assumed) above, with V225I, H232Q counted along it

B1: ROR1xCD3 BiTE (membrane proximal binding ROR1-BiTE specific for the Frizzled domain) (bispecific antibody, part only; not given: OKT3 scFv and linkers, part only)
chain, part: HHHHHHEVQLVESGGGLVQPGRSLKLSCAASGFIFSEHNMAWVRQAPKKGLEWVATISDDGRNTYYRDSMRGRFTISRENARSTLYLQLDSLRSEDTATYYCASHRYNLFDSWGQGVMVTVSSDIQMTQSPSFLSASVGDRVTINCKASQNIDRYLNWYQQKLGEAPKRLLYNTNKLQTGIPSRFSGSGSATDFTLTISSLQPEDFATYFCLQYNSLPLTFGSGTKLEIK
In test [1], B1 registered a cytotoxicity against neuroblastoma cell lines; lowest concentration named (micrograms/ml) of 0.01 and a dose dependent cytotoxicity across ROR1 positive pancreatic cell lines (PANC-1, SUIT-2, CFPAC1, HPAF-II, MiaPaCa2, PSN-1); lowest concentration with significant activity of 0.1 ng/mL.

B2: Clone F antibody (antibody, V domains shown)
VH: EVQLVESGGGLVQPGRSLKLSCAASGFIFSEHNMAWVRQAPKKGLEWVATISDDGRNTYYRDSMRGRFTISRENARSTLYLQLDSLRSEDTATYYCASHRYNLFDSWGQGVMVTVSS
VL: DIQMTQSPSFLSASVGDRVTINCKASQNIDRYLNWYQQKLGEAPKRLLYNTNKLQTGIPSRFSGSGSATDFTLTISSLQPEDFATYFCLQYNSLPLTFGSGTKLEIK
notes: Rat anti-ROR1 antibody from a hybridoma library
Take B2: in test [2], the binding result is “no binding”.
